Patent US20250382353A1 (published 2025)

Biological target: SARS-CoV-2 D614G spike (SARS-CoV-2, UniProt P0DTC2 14-1208)
Test: SPR

B1: 1C3 antigen-binding fragment (Fab) (Fab, V domains shown)
VH: QVQLLESGGGLVQPGRSLRLSCAASGFTFDDYAMHWVRQPPGKGLEWVSGSSWNSGSVVYADSVKGRFTISRDSAKNSLHLQMNSLRVEDTALYYCAKAVDPTRGSYSPDYGFDIWGQGTMVTVS
VL: not shown
Which Kd does the source give for B1 here?
Its Kd is 0.043 nM.

B2: Fab 2A10 (antibody, V domains shown)
VH: QVQLVESGGGLIQPGGSLRLSCAASEFIVSSNYMSWVRQAPGKGLEWVSLLYSGGTTYYADSVKGRFTISRDNSKNTLFLQMNSLRAEDTAMYYCARDRGPWLHDYWGQGTLVTVS
VL: DIVMTQSPSSLSASVGDRVTITCQASQDINKYCNWYQQKPGKAPKLLIYDASNLETGVPSRFSGSGSGTDFTFTINSLQPEDIATYYCQQYDNLPPTFGGGTKVEIK
B2 was tested. Which Kd did it give?
The Kd was 0.161 nM.
